Experimental data as given in patent US20220227887A1 (ONO PHARMACEUTICAL, published 2022).

T1: monomeric mouse LAG3-EC (strep-tagged) (mouse, UniProt Q61790 24-422, limits assumed)
T1 construct: It was immobilized on a streptavidin-coated biosensor; also called mouse LAG3 soluble protein; not shown: C-terminal strep tag
T1 sequence: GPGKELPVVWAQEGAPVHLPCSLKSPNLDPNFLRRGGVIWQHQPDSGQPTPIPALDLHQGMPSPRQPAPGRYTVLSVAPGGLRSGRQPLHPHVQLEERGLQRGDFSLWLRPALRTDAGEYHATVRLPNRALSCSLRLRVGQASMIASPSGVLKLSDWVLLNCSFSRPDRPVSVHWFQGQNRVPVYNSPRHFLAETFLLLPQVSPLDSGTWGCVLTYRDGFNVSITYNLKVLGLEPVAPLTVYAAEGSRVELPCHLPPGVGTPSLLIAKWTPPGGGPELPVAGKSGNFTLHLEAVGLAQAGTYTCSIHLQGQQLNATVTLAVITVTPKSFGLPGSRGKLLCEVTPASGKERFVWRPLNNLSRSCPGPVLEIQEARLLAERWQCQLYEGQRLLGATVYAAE

T2: mouse LAG3 (wild type), forcibly expressed on DO11.10 or B3Z cells (mouse, UniProt Q61790 24-521)
T2 construct: The whole entry is named; also called mLAG3; mLAG3 WT
T2 sequence: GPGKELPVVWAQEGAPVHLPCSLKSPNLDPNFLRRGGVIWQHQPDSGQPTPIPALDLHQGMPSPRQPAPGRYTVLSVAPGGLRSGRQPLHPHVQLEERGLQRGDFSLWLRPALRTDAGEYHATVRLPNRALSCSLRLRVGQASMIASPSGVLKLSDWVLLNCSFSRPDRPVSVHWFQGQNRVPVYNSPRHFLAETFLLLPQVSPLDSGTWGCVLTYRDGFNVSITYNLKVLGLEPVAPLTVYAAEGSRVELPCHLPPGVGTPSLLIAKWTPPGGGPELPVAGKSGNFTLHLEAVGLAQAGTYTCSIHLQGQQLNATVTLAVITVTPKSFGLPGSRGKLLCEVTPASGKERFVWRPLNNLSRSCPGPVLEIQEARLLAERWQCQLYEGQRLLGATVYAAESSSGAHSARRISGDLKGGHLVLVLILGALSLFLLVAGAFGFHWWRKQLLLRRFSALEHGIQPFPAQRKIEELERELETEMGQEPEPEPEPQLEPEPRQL


Experiments:
[1] = target: T1, monomeric mouse LAG3-EC (strep-tagged); experiment: biolayer interferometry (BLItz), strep-tagged monomeric mouse LAG3-EC on the biosensor, antibody at 66.67, 200, 666.7 and 2000 nM
Description: (§1) The binding affinity of anti-mouse LAG3 antibodies (TKB58 and C9B7W) to a mouse LAG3 soluble protein was measured by biolayer interferometry. Briefly, cDNA fragments encoding D1 to D4 (LAG3-EC) of mouse LAG3 were amplified by PCR. A strep tag was added to the C-terminus of LAG3-EC. The chimeric cDNA was cloned into an expression vector modified from pEBMulti-Neo (Wako). Plat-E cells were transfected with the plasmid using Avalanche-Omni Transfection Reagent (EZ Biosystems) and the culture supernatant was collected after 48 hours. Monomeric mouse LAG3-EC (strep-tagged) was immobilized on a streptavidin-coated biosensor chip (Pall ForteBio) and binding of anti-mouse LAG3 antibodies at various concentrations was monitored with BLItz (Pall ForteBio). The chips were washed with PBS and the dissociation rates were analyzed. The binding rate constant (ka), the dissociation rate constant (kd), and the dissociation constant […] were calculated with BLItz Pro software. In TKB58, as compared with a case in C9B7W, ka was about 26 times faster and kd was 3.6 times slower.

[2] = target: T2, mouse LAG3 (wild type), forcibly …; experiment: flow cytometry of DO11.10-mLAG-3 cells (CD3ε +, LAG-3 +) stained with culture supernatant, detected with anti-FLAG tag antibody
Description: A nucleic acid encoding the heavy and light chain variable regions of an anti-mouse LAG3 antibody (TKB58) and an anti-mouse CD3s antibody (2C11) was synthesized, amplified by PCR, and was cloned into an expression plasmid vector produced by modifying pEBMulti-Neo (Wako) or pSecTag2/Hygro (Thermo Fisher Scientific), whereby expression plasmids of bispecific molecules 2C11xTKB58 (SEQ ID NO: 31) and TKB58x2C11 (SEQ ID NO: 32) recognizing mouse LAG3 and […] were produced. The expression plasmid was transfected into PlatE cells using Avalanche-Omni Transfection Reagent (EZ Biosystems), and the culture supernatant was collected after 48 hours. BW5147, DO11.10, and DO11.10-mLAG3 cells were stained using the culture supernatant.

[3] = target: T2, mouse LAG3 (wild type), forcibly …; experiment: flow cytometry of cells stained with culture supernatant
Description: A nucleic acid encoding the heavy and light chain variable regions of an anti-mouse LAG3 antibody (TKB58) and an anti-mouse CD8 antibody (YTS169) was synthesized, amplified by PCR, and was cloned into an expression plasmid vector produced by modifying pEBMulti-Neo (Wako), whereby an expression plasmid of a bispecific molecule TKB58xYTS169 (SEQ ID NO: 33) recognizing mouse LAG3 and mouse CD8 was produced. The expression plasmid was transfected into PlatE cells using Avalanche-Omni Transfection Reagent (EZ Biosystems), and the culture supernatant was collected after 48 hours. DO11.10, DO11.10-mLAG3, B3Z, and B3Z-mLAG3 cells were stained using the culture supernatant.

[4] = target: T1, monomeric mouse LAG3-EC (strep-tagged); experiment: biolayer interferometry (BLItz); reference C9B7W
Description: as §1

Kd [1] | koff [1] | kon [1] | Molecule | other results
414 nM | 0.00392 s⁻¹ | 9480 M⁻¹ s⁻¹ | anti-mouse LAG3 antibody C9B7W | 
 |  |  | bispecific molecule 2C11xTKB58 (bispecific antibody, Used as culture supernatant of transfected PlatE cells) DAAQPAREVQLVESGGGLVQPGKSLKLSCEASGFTFSGYGMHWVRQAPGRGLESVAYITSSSINIKYADAVKGRFTVSRDNAKNLLFLQMNILKSEDTAMYYCARFDWDKNYWGQGTMVTVSSGGGGSIVLTQSPATLSVTPGDSVSLSCRASQSISNNLHWYQQKSHESPRLLIKYASQSISGIPSRFSGSGSGTDFTLSINSVETEDFGMYFCQQSNSWPQYTFGGGTKLEIKGGGGSGGGGSGGGGSVQLQQSGAELVRPGALVKLSCKASGFNIKDYYMHWVKQRPEQGLEWIGWIDPENGNTIYDPKFQDKASLTADTSSNTAYLQLSSLTSEDTAVYYCAPERGYDYAMDYWGQGTSVTVSSGGGGSDIQMTQSPSSLPASLGDRVTINCQASQDISNYLNWYQQKPGKAPKLLIYYTNKLADGVPSRFSGSGSGRDSSFTISSLESEDIGSYYCQQYYNYPWTFGPGTKLEIKGGGGSDYKDDDDKNSAVDHHHHHH | binding result [2]: binds
 |  |  | bispecific molecule TKB58xYTS169 (bispecific antibody, Used as culture supernatant of transfected PlatE cells) DAAQPARVQLQQSGAELVRPGALVKLSCKASGFNIKDYYMHWVKQRPEQGLEWIGWIDPENGNTIYDPKFQDKASLTADTSSNTAYLQLSSLTSEDTAVYYCAPERGYDYAMDYWGQGTSVTVSSGGGGSDIVLTQSPAMAMSPGERITISCRASESVSTRMHWYQQKPGQQPKLLIYGASNLESGVPARFSGSGSGTDFTLTIDPVEANDTATYFCQQSWYDPWTFGGGTKLELKGGGGSGGGGSGGGGSEVKLQESGGGLVQPGRSLKLSCAASGFNFNDYWMGWVRQAPGKGLEWIGEINKDSSTINYTPSLKDKFTISRDNAQNTLYLQMSKLGSEDTAIYYCARARGMMVLIIPHYFDYWGQGVMVTVSSTGGGGSIVLTQSPATLSVTPGDSVSLSCRASQSISNNLHWYQQKSHESPRLLIKYASQSISGIPSRFSGSGSGTDFTLSINSVETEDFGMYFCQQSNSWPQYTFGGGTKLEIKGGGGSDYKDDDDKNSAVDHHHHHH | binding result [3]: binds
4.39 nM | 0.0011 s⁻¹ | 251000 M⁻¹ s⁻¹ | anti-mouse LAG3 antibody TKB58 (antibody, V domains shown, Full-form antibody; also called TKB58 antibody; full-form anti-mouse LAG3 antibody) VH: VQLQQSGAELVRPGALVKLSCKASGFNIKDYYMHWVKQRPEQGLEWIGWIDPENGNTIYDPKFQDKASLTADTSSNTAYLQLSSLTSEDTAVYYCAPERGYDYAMDYWGQGTSVTVSS VL: IVLTQSPATLSVTPGDSVSLSCRASQSISNNLHWYQQKSHESPRLLIKYASQSISGIPSRFSGSGSGTDFTLSINSVETEDFGMYFCQQSNSWPQYTFGGGTKLEIK | fold faster ka against C9B7W [4]: ~26 times; fold lower KD against C9B7W [4]: 94 times; fold slower kd against C9B7W [4]: 3.6 times
